Laboratory results as given in patent publication US20090070890A1 (AFFITECH, published 2009).

Columns and labels:
[1] = biological target: T1, mouse recombinant CD166-Fc (R&D systems) (mouse, UniProt Q61490 28-527); assay: ELISA on coated mouse CD166-Fc
T1 construct: Bought reagent; also called mouse CD166-Fc; not shown: Fc part of the commercial chimera, not described
T1 sequence (looked up): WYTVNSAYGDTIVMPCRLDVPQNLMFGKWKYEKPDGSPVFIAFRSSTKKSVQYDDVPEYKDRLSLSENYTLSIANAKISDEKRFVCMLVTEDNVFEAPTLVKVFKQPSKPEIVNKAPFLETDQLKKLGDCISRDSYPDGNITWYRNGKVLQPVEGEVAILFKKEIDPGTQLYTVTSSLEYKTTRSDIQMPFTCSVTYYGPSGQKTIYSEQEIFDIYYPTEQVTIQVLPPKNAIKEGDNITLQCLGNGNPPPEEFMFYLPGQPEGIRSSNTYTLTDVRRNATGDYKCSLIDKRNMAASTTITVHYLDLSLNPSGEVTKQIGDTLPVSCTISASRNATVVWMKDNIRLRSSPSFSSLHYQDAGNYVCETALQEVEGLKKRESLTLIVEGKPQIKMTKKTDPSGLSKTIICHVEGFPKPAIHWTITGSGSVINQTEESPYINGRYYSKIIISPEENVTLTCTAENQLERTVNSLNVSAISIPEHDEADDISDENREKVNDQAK

[2] = biological target: T2, human recombinant CD166-Fc (R&D systems), complete extracellular domain (human, UniProt Q13740 28-527); assay: ELISA, plate coated with 10 ug/ml CD166-Fc, detection with anti-kappa-HRP and ABTS, absorbance at 405 nm
T2 construct: extracellular domain; Bought reagent; also called recombinant CD166-Fc antigen; human CD166-Fc; not shown: Fc part of the commercial chimera, not described
T2 sequence (looked up): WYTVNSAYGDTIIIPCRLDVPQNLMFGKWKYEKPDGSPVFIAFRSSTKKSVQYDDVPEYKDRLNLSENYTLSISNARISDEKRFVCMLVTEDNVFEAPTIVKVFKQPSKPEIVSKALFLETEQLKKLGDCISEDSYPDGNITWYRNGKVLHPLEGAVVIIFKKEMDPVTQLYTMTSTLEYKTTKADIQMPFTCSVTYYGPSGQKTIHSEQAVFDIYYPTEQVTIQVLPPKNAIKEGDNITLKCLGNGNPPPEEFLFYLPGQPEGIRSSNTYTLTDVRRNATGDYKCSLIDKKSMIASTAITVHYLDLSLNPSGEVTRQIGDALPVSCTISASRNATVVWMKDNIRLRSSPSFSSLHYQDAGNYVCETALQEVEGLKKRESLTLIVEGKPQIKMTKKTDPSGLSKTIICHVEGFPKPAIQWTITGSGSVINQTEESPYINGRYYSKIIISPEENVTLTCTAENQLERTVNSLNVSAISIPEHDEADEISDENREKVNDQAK
Protocol: Binding of the EJ212/007-Cl2-5 IgG to the CD166 antigen was tested in ELISA. An ELISA plate was coated overnight with 10 μg/ml of a commercially available recombinant CD166-Fc antigen (R&D systems), CD166 d1-5/Fc or CD166 d1-3/Fc. An IgG with irrelevant binding specificity was added to the ELISA as a negative control. After washing with PBS/0.05% Tween the plate was incubated for 1 hour with a dilution series of EJ212/007-Cl2-5 IgG ranging from 10 to 0.16 μg/ml. Detection of the bound IgG was done by incubation for 1 hour with 1 μg/ml anti-kappa-HRP and 15 minutes with the 1-step ABTS substrate (Pierce). The absorbance was measured at 405 nm.

[3] = biological target: T3, CD166 (ALCAM, activated leukocyte cell adhesion molecule), native, of human tumor cell lines (human, UniProt Q13740 28-583); assay: western blot, non-reducing SDS-PAGE, probed with EJ212/007-Cl2-5 IgG and anti-human IgG-HRP
T3 construct: whole, on cells; The antigen was identified as CD166 by mass spectrometry of protein from PM-1 cells; also called CD166 antigen; MEMD
T3 sequence (looked up): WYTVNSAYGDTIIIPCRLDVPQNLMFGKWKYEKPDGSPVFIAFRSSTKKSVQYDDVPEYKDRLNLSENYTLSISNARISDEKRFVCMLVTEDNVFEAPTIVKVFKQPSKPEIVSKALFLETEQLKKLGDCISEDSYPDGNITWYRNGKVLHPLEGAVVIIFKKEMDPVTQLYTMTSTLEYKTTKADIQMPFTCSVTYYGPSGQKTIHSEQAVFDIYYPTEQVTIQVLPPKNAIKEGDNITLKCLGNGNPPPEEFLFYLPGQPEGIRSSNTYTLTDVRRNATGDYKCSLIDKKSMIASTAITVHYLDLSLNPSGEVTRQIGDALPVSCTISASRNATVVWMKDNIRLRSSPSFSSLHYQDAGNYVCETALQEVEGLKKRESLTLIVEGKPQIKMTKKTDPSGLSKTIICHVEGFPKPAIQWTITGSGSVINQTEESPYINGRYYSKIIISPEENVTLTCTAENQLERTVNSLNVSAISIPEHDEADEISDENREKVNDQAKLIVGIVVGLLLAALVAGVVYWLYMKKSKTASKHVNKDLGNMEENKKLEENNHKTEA
Source text: Membrane proteins were isolated from two EJ212/007-Cl2-5 antigen-positive cell lines (PM-1 and DU-145; determined by FACS analysis) and concentrated by ultra-centrifugation. The membranes were resuspended in detergent (CHAPS/DOC) which was then removed from the sample by using Detergent Removing Resin (Pierce) in column format. The purified membrane proteins before and after sample concentration, and the cytosolic fraction were subsequently analysed by SDS-PAGE/Western under non-reducing conditions. The blot was probed with the EJ212/007-Cl2-5 IgG and corresponding secondary anti-human IgG coupled to HRP in order to visualise the proteins by chemiluminescence.

[4] = biological target: T3, CD166 (ALCAM, activated leukocyte cell …); assay: photo-cross-linking of linker-coupled scFv to PM-1 cells, His-column and streptavidin-bead purification, blot detected with streptavidin-HRP
Protocol: PM-1 cells (2×10⁶) were incubated with 25 μg of the above linker coupled scFv. After washing with PBS the cells were exposed to UV light at 302 nm. This was followed by lysis of the cells by NP-40 in the presence of DNAsel. After incubation on ice SDS was added and the samples were loaded on a His-column. The column was washed in the presence of NP-40 and SDS and the protein of interest was eluted with 5 mM DTT in the same detergents. The eluted sample was then mixed with streptavidin beads and the beads were washed in the presence of SDS. The SDS concentrations was increased and the beads were incubated at 90° C. for five minutes. The supernatant was then run on a 7% SDS-PAGE, transferred to a PVDF membrane and detected with streptavidin-HRP.

Recombinant ALCAM/Fc = biological target: T4, Recombinant ALCAM/Fc (UniProt Q13740 28-527, limits assumed); assay: Biacore T100; ALCAM/Fc (250 RU) amine-coupled to a CM5 chip; Fab at 3.9 to 125 nM; heterogeneous ligand model; Fab, not IgG; ALCAM/Fc on the chip
T4 construct: also called CD166 antigen (Biacore)
T4 sequence (looked up): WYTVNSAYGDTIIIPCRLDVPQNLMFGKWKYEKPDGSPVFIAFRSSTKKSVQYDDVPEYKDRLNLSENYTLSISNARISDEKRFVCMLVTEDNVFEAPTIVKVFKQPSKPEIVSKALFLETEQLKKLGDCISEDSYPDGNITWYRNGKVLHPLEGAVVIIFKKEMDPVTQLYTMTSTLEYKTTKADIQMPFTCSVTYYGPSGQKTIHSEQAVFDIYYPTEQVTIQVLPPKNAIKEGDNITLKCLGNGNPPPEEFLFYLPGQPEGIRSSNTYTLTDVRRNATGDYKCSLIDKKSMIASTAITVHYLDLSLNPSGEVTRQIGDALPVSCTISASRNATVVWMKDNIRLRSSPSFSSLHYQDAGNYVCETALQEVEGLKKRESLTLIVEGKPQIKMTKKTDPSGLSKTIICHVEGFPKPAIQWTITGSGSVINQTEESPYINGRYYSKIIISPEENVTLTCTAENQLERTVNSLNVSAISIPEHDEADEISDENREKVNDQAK
Protocol: Binding affinity of EJ212/007-Cl2-5 Fab fragments to the CD166 antigen was measured by Biacore analysis. Recombinant ALCAM/Fc (250RU) was immobilized by amine coupling to a CM5 chip. A range of concentrations of the Fab antibody, from 3.9 to 125 nM (nanomolar), were run over the chip. The binding affinity, expressed as the Kd, was calculated using the Heterogen ligand binding model in the Biacore T100 Evaluation software.

B1: EJ212/007-Cl2-5 IgG (antibody)
heavy: not shown
light: DIRMTQSPSFLSASVGDRVTITCRASQDISSYFAWYQQKPGKAPKLLIYAASTLRSGVPSRFSGSGSGTDFTLTISSLQPEDFATYYCQQSYSTPRITFGQGTRLEIKRTVAAPSVFIFPPSDEQLKSGTASVVCLLNNFYPREAKVQWKVDNALQSGNSQESVTEQDSKDSTYSLSSTLTLSKADYEKHKVYACEVTHQGLSSPVTKSFNRGEC
notes: Human IgG1/kappa; also called IgG form of EJ212/007-Cl2-5; EJ212/007-Cl2-5 IgG antibody
binding result [1]: binds
binding result [2]: binds
binding result [3]: binds

B2: scFv EJ212/007-Cl2-5 T68C (scFv, name in Kabat numbering)
scFv: EVQLLESGGGLVQPGGSLRLSCAASGFTFSSYAMSWVRQAPGKGLEWVSAISGSGGSTYYADSVKGRFCISRDNSKNTLYLQMNSLRAEDTAVYYCARGGGVVEFWGQGTLVTVSSKLSGSASAPKLEEGEFSEARVDIRMTQSPSFLSASVGDRVTITCRASQDISSYFAWYQQKPGKAPKLLIYAASTLRSGVPSRFSGSGSGTDFTLTISSLQPEDFATYYCQQSYSTPRITFGQGTRLEIK
modifications: Mts-Atf-LC-Biotin linker (Pierce 33083) coupled to the introduced Cys 68 (Kabat)
notes: Expressed in E. coli TG1; also called EJ212/007-Cl2-5 scFv (His-tagged) with a cysteine introduced by point mutation at position 68 (Kabat, RFCIS); linker coupled scFv
binding result [4]: binds

B3: EJ212/007-Cl2-5 Fab (Fab, V domains shown)
VH: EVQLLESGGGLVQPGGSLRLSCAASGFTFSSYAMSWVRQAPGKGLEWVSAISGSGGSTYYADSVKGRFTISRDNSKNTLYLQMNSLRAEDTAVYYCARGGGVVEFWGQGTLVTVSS
VL: DIRMTQSPSFLSASVGDRVTITCRASQDISSYFAWYQQKPGKAPKLLIYAASTLRSGVPSRFSGSGSGTDFTLTISSLQPEDFATYYCQQSYSTPRITFGQGTRLEIK
notes: Fab format of EJ212/007-Cl2-5; The CH1 and CL of the Fab, and how it was made, are not described; also called EJ212/007-Cl2-5 Fab fragments; Fab antibody
Kd (Recombinant ALCAM/Fc): 29 nM
